Data set [1] deals with HT-1080/neo/HPRT editing lines. Nature of the data set: neo gene editing (G418 selection) after shRNA inhibition of selected replication fork proteins. The settings on record: shRNA induced 24 hours with doxycycline (1 μg/ml); AAV-HSN MOI 2×10^4. Type of data set: cell-based, human. Here is the method: (§1) To determine the effect of shRNA specific for selected replication fork proteins on gene editing, experiments were performed using the HT-1080/neo/HPRT editing lines. Each gene indicated in Table 8 below was inhibited with a shRNA (sequences provided in Table 7 below) expressed from a lentivirus vector.
(§2) HPRT and neo gene editing frequencies were measured by G418 or HAT selection and normalized to a cell that was not treated with a shRNA.
(§3) Cells were first transduced with a lentivirus expressing a shRNA specific for the targeted genes. 2×10^4 HT-1080 cells transduced with the specific shRNAs were then plated in 6-well plates on day 1, and the expression of the shRNA was induced for 24 hours with doxycycline (1 μg/ml). On day 2, cells were transduced with AAV-HSN or AAV-HPe3 at a MOI of 2×10^4. On day 4, the cells were treated with trypsin and 0.1% of the cells were replated without selection in 6-well plates to determine the number of colony forming units. The remainder of the cells were replated in 6-well plates for further analysis of gene editing frequency.
(§4) On day 5, neo gene correction experiments were performed by the addition of G418 (700 ug/ml) to the experimental plates. On day 16, plates were washed with PBS and the colonies were stained with Coomassie brilliant blue G. The percentage of neo gene correction was calculated as the number of G418-resistant CFU per total CFU for each original well. On day 6, HPRT gene correction experiments were performed by adding 1× HAT (hypoxanthine-aminopterin-thymidine medium) to the experimental plates. On day 16, plates were washed with PBS and the colonies were stained with Coomassie brilliant blue G. The percentage of HPRT gene correction was calculated as the number of HAT-resistant CFU per total CFU for each original well.

Data set [2] deals with HT-1080/neo/HPRT editing lines. Put plainly: HPRT gene editing (HAT selection) after shRNA inhibition of selected replication fork proteins. Type of data set: cell-based, human. Conditions: shRNA induced 24 hours with doxycycline (1 μg/ml); AAV-HPe3 MOI 2×10^4. Here is the method:
as §1, §2, §3, §4

The values that follow come from US20220106596A1, “A METHOD OF GENE EDITING” (University of Washington, priority 2019, published 2022).

B1: Sh41: shRNA cloned in pTRIPZ (Dharmacon), target gene Topo III alpha; SEQ ID NO: 106 (nucleic acid)
chain: GTTGACAGTGAGCGTGGACATTTACTGGCTCATGATTAGTGAAGCCACAGATGTAATCATGAGCCAGTAAATGTCCATGCCTACTGCCTC
As for B1, the “G418 (neo) gene editing frequency normalized to a cell not treated with a shRNA” value in data set [1] came to 1.42. Besides, in data set [2], the “HAT (HPRT) gene editing frequency normalized to a cell not treated with a shRNA” value turned out to be 1.66.

B2: Sh42: shRNA cloned in pTRIPZ (Dharmacon), target gene 12A5, MEIS2; SEQ ID NO: 107 (nucleic acid)
chain: GTTGACAGTGAGCGCGGACTTTATCAGAAACTCAAATAGTGAAGCCACAGATGTATTTGAGTTTCTGATAAAGTCCTTGCCTACTGCCTC
Take B2: the “G418 (neo) gene editing frequency normalized to a cell not treated with a shRNA” value in data set [1] was found to be 1.26.

B3: SH60: shRNA cloned in pTRIPZ (Dharmacon), target gene BLM; SEQ ID NO: 109 (nucleic acid)
chain: GTTGACAGTGAGCGCGGAGTCTGCGTGCGAGGATTATAGTGAAGCCACAGATGTATAATCCTCGCACGCAGACTCCTTGCCTACTGCCTC
Take B3: the “G418 (neo) gene editing frequency normalized to a cell not treated with a shRNA” value in data set [1] amounted to 2.08. Moreover, in data set [2], the “HAT (HPRT) gene editing frequency normalized to a cell not treated with a shRNA” value is 1.38.

B4: SH61: shRNA cloned in pTRIPZ (Dharmacon), target gene BLM; SEQ ID NO: 110 (nucleic acid)
chain: GTTGACAGTGAGCGAAACCTTCCTATGATATTGATATAGTGAAGCCACAGATGTATATCAATATCATAGGAAGGTTGTGCCTACTGCCTC
For B4, in data set [1], the “G418 (neo) gene editing frequency normalized to a cell not treated with a shRNA” value is reported as 2.64. For the same molecule, in data set [2], the “HAT (HPRT) gene editing frequency normalized to a cell not treated with a shRNA” value was found to be 2.82.

B5: SH9: shRNA cloned in pTRIPZ (Dharmacon), target gene 1B5, anapc5; SEQ ID NO: 102 (nucleic acid)
chain: GTTGACAGTGAGCGCGCGCATTATCTCAGCTACTTATAGTGAAGCCACAGATGTATAAGTAGCTGAGATAATGCGCTTGCCTACTGCCTC
Turning to B5, the “G418 (neo) gene editing frequency normalized to a cell not treated with a shRNA” value in data set [1] is listed as 2.81. The “HAT (HPRT) gene editing frequency normalized to a cell not treated with a shRNA” value in data set [2] was 29.10.

B6: SH56: shRNA cloned in pTRIPZ (Dharmacon), target gene 12B12, ORC1L; SEQ ID NO: 108 (nucleic acid)
chain: GTTGACAGTGAGCGCGCCACGTTTCAACAGATATATTAGTGAAGCCACAGATGTAATATATCTGTTGAAACGTGGCTTGCCTACTGCCTC
Take B6: in data set [1], the “G418 (neo) gene editing frequency normalized to a cell not treated with a shRNA” value is reported as 2.07. Moreover, the “HAT (HPRT) gene editing frequency normalized to a cell not treated with a shRNA” value in data set [2] is recorded as 2.11.

B7: SH79: shRNA cloned in pTRIPZ (Dharmacon), target gene POLA1; SEQ ID NO: 113 (nucleic acid)
chain: GTTGACAGTGAGCGCGCAGATCATGTGTGAGCTAAATAGTGAAGCCACAGATGTATTTAGCTCACACATGATCTGCATGCCTACTGCCTC
modifications: listed as DNA, chemistry not fully specified
Turning to B7, the “G418 (neo) gene editing frequency normalized to a cell not treated with a shRNA” value in data set [1] came to 1.24. In data set [2], the “HAT (HPRT) gene editing frequency normalized to a cell not treated with a shRNA” value is on record as 2.46.

B8: SH63: shRNA cloned in pTRIPZ (Dharmacon), target gene BLM; SEQ ID NO: 112 (nucleic acid)
chain: GTTGACAGTGAGCGAAGGTTATCTGTGCTACAATTGTAGTGAAGCCACAGATGTACAATTGTAGCACAGATAACCTGTGCCTACTGCCTC
For B8, the “G418 (neo) gene editing frequency normalized to a cell not treated with a shRNA” value in data set [1] was determined as 1.99. In addition, the “HAT (HPRT) gene editing frequency normalized to a cell not treated with a shRNA” value in data set [2] stood at 0.92.

B9: SH62: shRNA cloned in pTRIPZ (Dharmacon), target gene BLM; SEQ ID NO: 111 (nucleic acid)
chain: GTTGACAGTGAGCGCGGTGTCCATTACTTCAATATTTAGTGAAGCCACAGATGTAAATATTGAAGTAATGGACACCATGCCTACTGCCTC
As for B9, the “G418 (neo) gene editing frequency normalized to a cell not treated with a shRNA” value in data set [1] turned out to be 2.28. The “HAT (HPRT) gene editing frequency normalized to a cell not treated with a shRNA” value in data set [2] stood at 2.34.

B10: Sh40: shRNA cloned in pTRIPZ (Dharmacon), target gene RMI1/BLAP75; SEQ ID NO: 105 (nucleic acid)
chain: GTTGACAGTGAGCGTGATCTAGTTACAGCTGAAGCATAGTGAAGCCACAGATGTATGCTTCAGCTGTAACTAGATCATGCCTACTGCCTC
On to B10, for which the “G418 (neo) gene editing frequency normalized to a cell not treated with a shRNA” value in data set [1] is listed as 1.37. Also, the “HAT (HPRT) gene editing frequency normalized to a cell not treated with a shRNA” value in data set [2] turned out to be 1.61.

B11: SH7: shRNA cloned in pTRIPZ (Dharmacon), target gene 1B3, POLE4; SEQ ID NO: 101 (nucleic acid)
chain: GTTGACAGTGAGCGCGGAGAGACTTGGATAATGCAATAGTGAAGCCACAGATGTATTGCATTATCCAAGTCTCTCCTTGCCTACTGCCTC
With B11, in data set [1], the “G418 (neo) gene editing frequency normalized to a cell not treated with a shRNA” value was 1.57. Further, the “HAT (HPRT) gene editing frequency normalized to a cell not treated with a shRNA” value in data set [2] is on record as 8.24.

B12: sh15: shRNA cloned in pTRIPZ (Dharmacon), target gene 2b3, pms2; SEQ ID NO: 103 (nucleic acid)
chain: GTTGACAGTGAGCGCCCGTAGTCACTGTATGGAATATAGTGAAGCCACAGATGTATATTCCATACAGTGACTACGGTTGCCTACTGCCTC
As to B12, in data set [1], the “G418 (neo) gene editing frequency normalized to a cell not treated with a shRNA” value stood at 3.88. For the same molecule, the “HAT (HPRT) gene editing frequency normalized to a cell not treated with a shRNA” value in data set [2] turned out to be 17.59.

B13: Sh39: shRNA cloned in pTRIPZ (Dharmacon), target gene BLM; SEQ ID NO: 104 (nucleic acid)
chain: GTTGACAGTGAGCGTAAGCAGCGATGTGATTTGCATTAGTGAAGCCACAGATGTAATGCAAATCACATCGCTGCTTATGCCTACTGCCTC
Turning to B13, the “G418 (neo) gene editing frequency normalized to a cell not treated with a shRNA” value in data set [1] turned out to be 1.67. The “HAT (HPRT) gene editing frequency normalized to a cell not treated with a shRNA” value in data set [2] is listed as 3.8.
